A word on the Ki: it is the equilibrium dissociation constant of an inhibitor or competing ligand from its target. The low end stands for tighter binding, the high end for weaker binding.

The target of experiment [1] is Factor Xa. Put plainly: inhibition of FXa in the prothrombinase complex assay (250 pM FXa, 2.67 µM prothrombin).
Experiment [2] deals with Factor Xa. Briefly: modified prothrombinase complex assay (50 pM FXa, 1.35 µM prothrombin).
The target of experiment [3] is Factor Xa.

Regarding “naturally occurring FXa inhibitor isolated from dilute leech saliva (DLS) of Hirudo medicinalis”, the Ki in experiment [1] came to 0.072 nM; in experiment [2] it was 0.12 nM. In addition, the IC50, generation of thrombin from prothrombin by FXa in a prothrombinase complex in experiment [3] came to 0.19 nM.
